The data set concerns the molecule itself. Briefly: SEC-MALS. A general note: In gel filtration, larger molecules generally elute earlier.

B1: nCPEB4-NTD (N-terminal domain of neuronal CPEB4, with microexon 4) (domain or fragment, human)
chain: MGDYGFGVLVQSNTGNKSAFPVRFHPHLQPPHHHQNATPSPAAFINNNTAANGSSAGSAWLFPAPATHNIQDEILGSEKAKSQQQEQQDPLEKQQLSPSPGQEAGILPETEKAKSEENQGDNSSENGNGKEKIRIESPVLTGFDYQEATGLGTSTQPLTSSASSLTGFSNWSAAIAPSSSTIINEDASFFHQGGVPAASANNGALLFQNFPHHVSPGFGGSFSPQIGPLSQHHPHHPHFQHHHSQHQQQRRSPASPHPPPFTHRNAAFNQLPHLANNLNKPPSPWSSYQSPSPTPSSSWSPGGGGYGGWGGSQGRDHRRGLNGGITPLNSISPLKKNFASNHIQLQKYARPSSAFAPKSWMEDSLNRADNIFPFPDRPRTFDMHSLESSLIDIMRAENDTIKARTYGRRRGQSSLFPMEDGFLDDGRGDQPLHSGLGSPHCFSHQNGE
As a reminder, the stoichiometry N is the number of molecules, sites or subunits per partner or assembly. For B1, the “stoichiometry N” value was roughly 350 molecules.

These data come from doi:10.1101/2023.03.19.532587 (bioRxiv, 2023).
